Measured values as given in publication PMC8904060.

Columns and labels:
[1] = target: FimH variant 9 (recombinant dscFimH-His6) (E. coli | not stated) (UniProt P08191); experiment: SPR; BIAcore T200; FimH variant immobilised on CM5 chip (target amount 2,000 RU); GP2 isoforms as analytes at 0.5, 2.0, 6.0, 16 and 29 uM in PBS-P+; 25 C, 30 uL/min; association 3 min, dissociation 10 min; global 1:1 Langmuir fit
[2] = target: FimH variant 5 (recombinant dscFimH-His6) (E. coli | not stated) (UniProt P08191); experiment: as above

| Substance | Kd [1] [nM] | koff [1] [s⁻¹] | kon [1] [M⁻¹ s⁻¹] | Kd [2] [nM] | koff [2] [s⁻¹] | kon [2] [M⁻¹ s⁻¹] |
| --- | --- | --- | --- | --- | --- | --- |
| bovine GP2 isoform 1 (major zymogen granule membrane glycoprotein 2), recombinant secreted form (natural protein) | 340 | 0.000187 | 551 | 179 | 9.65e-05 | 538 |
| bovine GP2 isoform 2 (major zymogen granule membrane glycoprotein 2), recombinant secreted form (natural protein) | 93.4 | 5.72e-05 | 612 | 136 | 7.41e-05 | 545 |
| human GP2 isoform 2, recombinant (natural protein) | 22.5 | 2.38e-05 | 1060 | 97.8 | 0.000102 | 1040 |
| human GP2 isoform 4, recombinant (natural protein) | 0.927 | 4.31e-07 | 465 | 21.7 | 1.68e-05 | 772 |
| porcine GP2 isoform 1, recombinant (natural protein) | 158 | 8.44e-05 | 535 | 22.6 | 1.71e-05 | 758 |
| porcine GP2 isoform 2, recombinant (natural protein) | 98.5 | 8.84e-05 | 898 | 95.7 | 8.32e-05 | 870 |
